Laboratory results as given in patent publication US6309872A, “Polypeptides having glucoamylase activity and nucleic acids encoding same” (Novozymes Biotech, Inc, priority 2000, dated 2001).

Substrate: OC[C@H]1O[C@H](O[C@H]2[C@H](O)[C@@H](O)[C@@H](O[C@H]3[C@H](O)[C@@H](O)C(O)O[C@@H]3CO)O[C@@H]2CO)[C@H](O)[C@@H](O)[C@@H]1O
Assay: purified protein, by the assay type
Settings: other: maltotriose hydrolysis at pH 4, enzyme 11 μg/ml or 0.18 μM

B1: Thielavia terrestris ATCC 20627 glucoamylase, wild type, recombinant (expressed in Aspergillus oryzae), SEQ ID NO:2 (Thermothielavioides terrestris NRRL 8126) (protein)
chain: PEASRVRREGEVVKRSVDSFIATESPIALSNLLCNIGSTGCHASGVASGIVVASPDKTNPDYWYTWTRDSALTFKCVVDTFTNSYDASLQAEIQNYIVAQAHLQGVSNPSGSLSDGSGLGEPKFNVDMSQFTGAWGRPQRDGPALRAIALIAYSKWLISNGYTSTASSIVWPVIKNDLAYVAQYWNNTGFDLWEEVSGSSFFTVANQHRALVEGAALATSLGTSCSACSAVAPQILCFLQSFWSPSSGYILANINENNGRSAKDANTLLGSIHTFDPAAGCDAATFQPCSDRALANHKVVTDAFRSIYSINSGIAEGSAVAVGRYPEDSYFGGNPWYLNTLAAAEQLYDALYVWKKQGSITVTSTSLAFFKDFSSSITPGTYSSSTSTYTTLYNAISAYADGYMNIVAQYAQTNGSLSEQFSKTNGEPLSAYDLTWSYAAFLTAAARRAGVVPPSWGAASANSVPAQCSATSVVGSYTSATATSFPPSQTPASSTSAGSSPASSTTATATACSTPTAVAVTFNERVTTQWGQTIKVVGDAAALGGWDTSKAVPLSAAGYTASDPLWSGTVDLPAGLAVQYKYINVAADGGVTWEADPNHSFTVPAACGTTAVTRDDTWQ
B1 was tested, and the Km was 330 ± 70 µM and the kcat was “(5.5±0.5)×10^3 min^-1”.
